Laboratory results published in the DeepSol protein solubility set.

Experiment: soluble on expression in E. coli; label from the status in PepcDB or PDB records
In the case of “MRGSHHHHHHTDPALRASKVTPQPKIGFVSLGCPKNLVDSERILTELRTEGYDVVPSYDDADMVIVNTCGFIDSAVQESLEAIGEALNENGKVIVTGCLGAKEDQIREVHPKVLEITGPHSYEQVLEHVHHYVPKPKHNPFLSLVPEQGVKLTPRHYAYLKISEGCNHRCTFCIIPSMRGDLVSRPIGEVLSEAKRLVDAGVKEILVISQDTSAYGVDVKHRTGFHNGEPVKTSMVSLCEQLSKLGIWTRLHYVYPYPHVDDVIPLMAEGKILPYLDIPLQHASPRILKLMKRPGSVDRQLARIKQWREICPELTLRSTFIVGFPGETEEDFQMLLDFLKEARLDRVGCFKYSPVEGADANALPDQVPEEVKEERWNRFMQLQQQISAERLQEKVGREILVIIDEVDEEGAIGRSMADAPEIDGAVYLNGETNVKPGDILRVKVEHADEYDLWGSRVGLCGR”, the “soluble on expression in E. coli” value is reported as “soluble”. In the case of “MNRISTSSVNSSFSYSAPAEEAQNRVSSAPTNSSPPGTTTAVAQASEGQKKPGAVLSMQAQRLRQLCESSSYQYRQNALLAKSFDAQRLDINTQAGPSNSPHLNALNKLQQRDFKPAAGGLEIPFTPKSLLGGGKRVYQIGSSSRDVQVCPRGAGAALRQEIADKQLMVNHLTDELQDAIDEANQAEIANTSQQLRQARSDLAELQRRFAVLGNEDRRINQ”, the “soluble on expression in E. coli” value is reported as “not soluble”. In the case of “MFRLGTTPRATTYDPDARIGEVASRFGLPTRVLIEIVRTESFQRSLARVTSGKPVVLDLRELDSDLASWIATHARLVEPALRELVRTVAPDVEPRVRFRGLPHRFRRVERIRPMDGALISIEGVVREVRGAERLEHAIVDTGSELVAVRLHGHRLGPGLRVEILGIVRSATLDALEVHKKDPIPEVHPDPAELEEFRELADKDPLTTFARAIAPLPGAEEVGKMLALQLFSCVGKNSERLHVLLAGYPVVCSEILHHVLDHLAPRGVYVDLRRTELTDLTAVLKEDRGWALRAGAAVLADGGILAVDHLEGAPEPHRWALMEAMDKGTVTVDGIALNARCAVLAAINPGEQWPSDPPIARIDLDQDFLSHFDLIAFLGVDPRPGEPEEQDTEVPSYTLLRRYLLYAIREHPAPELTEEARKRLEHWYETRREEVEERLGMGLPTLPVTRRQLESVERLAKAHARMRLSDDVEPEDVDIAAELVDWYLETAMQIPGGDEIRISSLKP”, the “soluble on expression in E. coli” value is reported as “soluble”. With “MGSDKIHHHHHHMKGIDVSSYQGTIAWGKVKWAGVQFAILKIIRKDLNPDKTFEQNWQGCTEAGMPIQGVYNYSYATTTEKAKTDAKRVIEVLAGRKTFVWLDVEDRCQQGLGQTLIDIINTYQSEIKTAGLEFGVYTGLSFYNTYILPYANQINCPFWIARYPSTKGMTIGDDPNDAKKPAIAHSLYGWQYTSAFTCSGLNNSTDANLLYVELGTKDTTAASQPVSAPVKPNNESWKGDIDYYLESEEVRKWQHAMNVGFDLKGADALKEDGKFGADSQAFAKSHNLWNGQKHYCPTAIKWLRRTLHDVYSFTKLDTDYKEWSDYLSKCVMVFQKNRGLTQDARVGLLTTYRLLKG” the “soluble on expression in E. coli” value was “not soluble”. For “MGSDKIHHHHHHMVKVVKFGGSSLANAAQYQKVIEILRADPERRIVVVSAPGKRFKDDVKVTDLLIKYANASGENVKVARQAVLDRYQEIADAYHVSDSDFEQINVHLIDLANLHHANKACRLAHFKAAGERLNAILMALVLKKFNVTARFVDPKQLGIKAHGDYNNAILDQHSYAQIEAVCSNLLDEAEYLVVPGFYAYNQNGEVCTFSRGGSDITGAILARGFQAQLYENFTDVDSIYSADPKIIAQPHPIREMTYREMRELAYAGFSVFHDEAIIPAIEAQVPIVIKNTDHPNLPGTVIEPEQNYASDLEITGVASSSRFAALYIHKYLLNREVGFTLKLLKILYRYDISYEHMPSGIDDLTIIFNQNQITDEILPSLLSDIREELHTDQLEWIDDYAILMVVGEGMRDKVGVVDRIVNALARKQIGIQMINQGASRISTMLGVHQNQVNQAVREIYREFFKNKGRAD”, the “soluble on expression in E. coli” value was “not soluble”. For “MRQHRPALELSRLPELLSRIDGYKGQPVTRLAVMLNLLVFIRSSELRYARWSEIDIDNSMWTIPAEREPLPGVKFSHRGSKMRTPHLVPLSKQVVAILAELQTWAGENGLIFTGAHDPRKPISENTVNKALRVMGYDTTQEVCGHGFRAMACSALIESGLWSRDAVERQMSHQELEHHHHHH”, the “soluble on expression in E. coli” value was “not soluble”. With “MFSENLKKCRKQKKLTQQNMADKLGITRPAYTAYELGSREPDYKTLINISNILDVSLDYLLKGESNEKVFQDEAKKVLNDPETFLAAKDGEVTDEILQAALEIITEQLKERRKSDK” the “soluble on expression in E. coli” value was “not soluble”.
